Assay results as given in patent publication US20220227830A1, “QD DOSING OF GIP RECEPTOR AGONIST PEPTIDE COMPOUNDS AND USES THEREOF” (Takeda Pharmaceutical Company Limited, priority 2020, published 2022).
Starred links: 1 amine or outer side, 2 acyl side, 3 side chain; linkers in the order of their positions; H or OH if unused. Non-standard residues stand in square brackets, D forms with d. Groups on a side chain read outwards from the residue. No end group written: not given here. *: point of attachment. C15 diacid = O=C(O)CCCCCCCCCCCCCC(=O)*; γGlu = O=C(O)[C@H](CCC(=O)[*:2])N[*:1]; NMeY = CN[C@@H](Cc1ccc(O)cc1)C(=O)O; AEEA = NCCOCCOCC(=O)O; Aib = CC(C)(N)C(=O)O

Legend:
[1] = target: human plasma proteins; experiment: plasma protein binding; spiked human plasma, ultracentrifugation, LC-MS/MS
[2] = target: human plasma proteins; experiment: plasma protein binding, ultracentrifugation of spiked plasma, LC-MS/MS
[3] = target: dog plasma proteins; experiment: as above

B1: Compound 20 (peptide)
peptide: [NMeY][Aib]EGTFISDYSI[Aib]LDRK([AEEA-AEEA-γGlu-γGlu-C15 diacid])AQ[Aib]NFVNWLLAQRPSSGAPPPS-NH2
modifications: not fully specified (N-terminus)
[1]
  percent of unbound drug in plasma: 0.1%
[2]
  Human PPB (Fu,plasma), fraction unbound (fraction unbound): 0.0013
[3]
  Dog PPB (Fu,plasma), fraction unbound (fraction unbound): 0.0021

B2: Compound 23 (peptide)
peptide: [NMeY][Aib]EGTFISDYSIAK([AEEA-γGlu-γGlu-γGlu-C15 diacid])DR[Aib]AQ[Aib]NFVNWLLAQK-NH2
modifications: N-terminus assumed
SMILES: CC[C@H](C)[C@H](NC(=O)[C@H](CO)NC(=O)[C@H](Cc1ccc(O)cc1)NC(=O)[C@H](CC(=O)O)NC(=O)[C@H](CO)NC(=O)[C@@H](NC(=O)[C@H](Cc1ccccc1)NC(=O)[C@@H](NC(=O)CNC(=O)[C@H](CCC(=O)O)NC(=O)C(C)(C)NC(=O)[C@H](Cc1ccc(O)cc1)NC)[C@@H](C)O)[C@@H](C)CC)C(=O)N[C@@H](C)C(=O)N[C@@H](CCCCNC(=O)COCCOCCNC(=O)CC[C@H](NC(=O)CC[C@H](NC(=O)CC[C@H](NC(=O)CCCCCCCCCCCCCC(=O)O)C(=O)O)C(=O)O)C(=O)O)C(=O)N[C@@H](CC(=O)O)C(=O)N[C@@H](CCCNC(=N)N)C(=O)NC(C)(C)C(=O)N[C@@H](C)C(=O)N[C@@H](CCC(N)=O)C(=O)NC(C)(C)C(=O)N[C@@H](CC(N)=O)C(=O)N[C@@H](Cc1ccccc1)C(=O)N[C@H](C(=O)N[C@@H](CC(N)=O)C(=O)N[C@@H](Cc1c[nH]c2ccccc12)C(=O)N[C@@H](CC(C)C)C(=O)N[C@@H](CC(C)C)C(=O)N[C@@H](C)C(=O)N[C@@H](CCC(N)=O)C(=O)N[C@@H](CCCCN)C(N)=O)C(C)C
[1]
  percent of unbound drug in plasma: 7.3%
  proportion of the drug being bound: 92.7%
[2]
  Human PPB (Fu,plasma), fraction unbound (fraction unbound): 0.0734
